B1: dystroglycan (mDag1): 4X mut. (Pax7-Cre or AAV-CMV-Cre) (protein)
parent chain: MSVDNWLLHPLWGQTFLLLLSVAVAQAHWPSEPSEAVRDWKNQLEASMHSVLSDFQEAVPTVVGIPDGTAVVGRSFRVSIPTDLIASSGEIIKVSAAGKEALPSWLHWDPHSHILEGLPLDTDKGVHYISVSAARLGANGSHVPQTSSVFSIEVYPEDHNEPQSVRAASSDPGEVVPSACAADEPVTVLTVILDADLTKMTPKQRIDLLNRMQSFSEVELHNMKLVPVVNNRLFDMSAFMAGPGNAKKVVENGALLSWKLGCSLNQNSVPDIRGVETPAREGAMSAQLGYPVVGWHIANKKPTLPKRLRRQIHATPTPVTAIGPPTTAIQEPPSRIVPTPTSPAIAPPTETMAPPVRDPVPGKPTVTIRTRGAIIQTPTLGPIQPTRVSEAGTTVPGQIRPTLTIPGYVEPTAVITPPTTTTKKPRVSTPKPATPSTDSSTTTTRRPTKKPRTPRPVPRVTTKAPITRLETASPPTRIRTTTSGVPRGGEPNQRPELKNHIDRVDAWVGTYFEVKIPSDTFYDNEDTTTDKLKLTLKLREQQLVGEKSWVQFNSNSQLMYGLPDSSHVGKHEYFMHATDKGGLSAVDAFEIHVHKRPQGDKAPARFKARLAGDPAPVVNDIHKKIALVKKLAFAFGDRNCSSITLQNITRGSIVVEWTNNTLPLEPCPKEQIIGLSRRIADENGKPRPAFSNALEPDFKALSIAVTGSGSCRHLQFIPVAPPSPGSSAAPATEVPDRDPEKSSEDDVYLHTVIPAVVVAAILLIAGIIAMICYRKKRKGKLTLEDQATFIKKGVPIIFADELDDSKPPPSSSMPLILQEEKAPLPPPEYPNQSMPETTPLNQDTVGEYTPLRDEDPNAPPYQPPPPFTAPMEGKGSRPKNMTPYRSPPPYVPP
B2: dystroglycan (mDag1): Pax7-Cre 4X mutant (protein)
parent chain: B1 parent chain

Assays:
[1] = EDL isometric tetanic and specific force in vitro; conditions: glycan lost; control: WT mice
[2] = EDL eccentric contraction protocol; conditions: glycan lost; control: WT mice
[3] = forelimb grip strength test; conditions: glycan lost; control: WT mice
[4] = glycan lost; control: WT mice

Protein	other: muscle contractile force [1]	other: susceptibility to contraction-induced injury [2]	other: grip strength [3]	other: neuromuscular junction integrity [4]
B1	decreases	increases	decreases	–
B2	–	–	–	decreases
